# Source: patent publication US20230257726A1 (published 2023)
# B1: Human coronavirus NL63 (HCoV-NL63) spike RBD (ligand)
# chain: QHTDINFTATASFGGSCYVCKPHQVNISLNGNTSVCVRTSHFSIRYIYNRVKSGSPGDSSWHIYLKSGTCPFSFSKLNNFQKFKTICFSTVEVPGSCNFPLEATWHYTSYTIVGALYVTWSEGNSITGVPYPVSGI
# Molecular target: Wild-type ACE2(740)-Fc (human)
# Assay: BLI, ACE2-Fc on tips, RBD in solution
# Wild-type ACE2(740)-Fc (human), sequence (chain, as listed by the source): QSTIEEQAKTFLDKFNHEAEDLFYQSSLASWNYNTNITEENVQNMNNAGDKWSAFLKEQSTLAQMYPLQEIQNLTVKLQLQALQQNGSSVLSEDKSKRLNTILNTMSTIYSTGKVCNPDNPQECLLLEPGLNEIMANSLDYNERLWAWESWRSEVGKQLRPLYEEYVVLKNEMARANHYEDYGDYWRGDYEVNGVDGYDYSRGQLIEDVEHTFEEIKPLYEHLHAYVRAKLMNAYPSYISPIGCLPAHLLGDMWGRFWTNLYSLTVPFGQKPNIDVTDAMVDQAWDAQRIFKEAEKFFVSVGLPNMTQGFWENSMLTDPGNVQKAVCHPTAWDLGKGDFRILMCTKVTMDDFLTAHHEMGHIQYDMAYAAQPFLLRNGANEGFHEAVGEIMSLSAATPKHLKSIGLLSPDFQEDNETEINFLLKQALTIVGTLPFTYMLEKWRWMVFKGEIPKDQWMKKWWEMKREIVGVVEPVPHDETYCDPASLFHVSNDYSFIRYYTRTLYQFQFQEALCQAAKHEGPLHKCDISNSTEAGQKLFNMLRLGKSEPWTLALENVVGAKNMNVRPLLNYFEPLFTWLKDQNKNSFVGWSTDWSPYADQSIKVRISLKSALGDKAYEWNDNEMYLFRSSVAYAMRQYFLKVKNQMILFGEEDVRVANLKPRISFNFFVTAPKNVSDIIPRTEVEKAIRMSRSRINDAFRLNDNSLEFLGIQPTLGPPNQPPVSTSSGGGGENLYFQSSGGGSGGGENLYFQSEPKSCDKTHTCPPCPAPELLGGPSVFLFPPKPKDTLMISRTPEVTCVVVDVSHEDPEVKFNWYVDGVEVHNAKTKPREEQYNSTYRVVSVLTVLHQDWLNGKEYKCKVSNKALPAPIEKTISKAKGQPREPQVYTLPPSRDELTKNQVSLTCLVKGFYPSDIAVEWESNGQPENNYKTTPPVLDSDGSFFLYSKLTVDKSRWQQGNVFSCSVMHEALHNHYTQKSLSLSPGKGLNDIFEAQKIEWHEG
binder,measurement,value
B1,Kd,22 nM
